Source: the supplement of paper PMC7877785
± gives the uncertainty stated by the source.

Assay: self-splicing fitness, log relative to wild type (ln ratio); higher = more splicing; Tetrahymena group I intron in knt gene, E. coli kanamycin selection, DiMSum; sequences stand for … in CUCUCU…GGAGGGAAAAGUUAUCAGGCAUGCACCUGGUAGCUAGUCUUUAAACCAAUAGAUUGCAUCGGUUUAAAAGGCAAGACCGUCAAAUUGCGGGAAAGGGGUCAACAGCCGUUCAGUACCAAGUCUCAGGGGAAACUUUGAGAUGGCCUUGCAAAGGGUAUGGUAAUAAGCUGACGGACAUGGUCCUAACCACGCAGCCAAGUCCUAAGUCAACAGAUCUUCUGUUGAUAUGGAUGCAGUUCACAGACUAAAUGUCGGUCGGGGAAGAUGUAUUCUUCUCAUAAGAUAUAGUCGGACCUCUCCUUAAUGGGAGCUAGCGGAUGAAGUGAUGCAACACUGGAGCCGCUGGGAACUAAUUUGUAUGCGAAAGUAUAUUGAUUAGUUUUGGAGUACUCGUGGUCG
In short: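 Six replicate transformations of E. coli BL21(DE3) with a pET-22b(+) library were grown overnight at 37°C or 30°C. The library randomised all eight P1ex-region intron nucleotides, the intron lying in the knt kanamycin-resistance gene, and plates were LB agar with or without 25 μg/mL kanamycin plus 100 μg/mL carbenicillin, 50 μM IPTG and 0.2% rhamnose. Pooled colonies were amplicon-sequenced on an Illumina HiSeq 2500, and fitness is the DiMSum error-weighted combination of wild-type-normalised replicate fold changes, kanamycin versus none.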

Sequence | self-splicing fitness (ln) (30 °C) | self-splicing fitness (ln) (37 °C)
CCCGAGCAAUAUUACGGCGG | -3.49 ± 0.23 | -1.66 ± 0.2
GAUCAGCAAUAUUACGGAUG | -1.19 ± 0.068 | -0.813 ± 0.076
GGCAAGCAAUAUUACGGAAC | -1.46 ± 0.13 | 0.485 ± 0.21
ACGUAGCAAUAUUACGAGUG | -2.54 ± 0.2 | -1.43 ± 0.15
GUCUAGCAAUAUUACGGUCU | -2.19 ± 0.17 | -0.272 ± 0.16
GGGGAGCAAUAUUACGUUGA | -3.11 ± 0.26 | -2.27 ± 0.24
GGGGAGCAAUAUUACGGGAG |  | -1.53 ± 0.39
AUGCAGCAAUAUUACGGAUC | -2.52 ± 0.15 | -2.7 ± 0.14
AAGCAGCAAUAUUACGUUUU | -3.3 ± 0.14 | -2.52 ± 0.14
AUGCAGCAAUAUUACGCCCG | -1.22 ± 0.2 | -0.571 ± 0.29
AGCUAGCAAUAUUACGUGUC | -3.35 ± 0.18 | -1.63 ± 0.14
CUAGAGCAAUAUUACGAUAC | -2.63 ± 0.35 | -2.25 ± 0.34
ACUAAGCAAUAUUACGAUCG | -0.981 ± 0.15 | 0.89 ± 0.18
CGGAAGCAAUAUUACGCAAA |  | -2.55 ± 0.33
AUUUAGCAAUAUUACGUUUA | -1.97 ± 0.19 | -1.07 ± 0.21
UUUCAGCAAUAUUACGACUC | -2.82 ± 0.18 | -0.13 ± 0.14
CGGUAGCAAUAUUACGAAAA | -2.62 ± 0.35 | -2.77 ± 0.39
CCUUAGCAAUAUUACGUGCC | -4.23 ± 0.25 | -2.41 ± 0.28
CGCUAGCAAUAUUACGUGAG | -3.88 ± 0.33 | -1.64 ± 0.14
ACAUAGCAAUAUUACGGCUA | -0.773 ± 0.055 | -0.391 ± 0.068
UCUCAGCAAUAUUACGCCUU | -3.77 ± 0.33 | -2.15 ± 0.21
GAAUAGCAAUAUUACGGCCC | -0.303 ± 0.14 | 0.174 ± 0.21
GAUCAGCAAUAUUACGUGGG | -3.21 ± 0.13 | -1.7 ± 0.11
GCCGAGCAAUAUUACGUCUA | -3.15 ± 0.29 | -0.742 ± 0.15
AGCAAGCAAUAUUACGAACC | -0.794 ± 0.12 | 0.286 ± 0.2

Sequence | self-splicing fitness (ln) (30 °C) | self-splicing fitness (ln) (37 °C)
CGCAAGCAAUAUUACGGCAA | -1.41 ± 0.1 | -0.0385 ± 0.081
AUGGAGCAAUAUUACGCCAA | -1.45 ± 0.44 | -1.03 ± 0.38
CCGAAGCAAUAUUACGGAAC | -2.82 ± 0.28 | -2.03 ± 0.26
CAAAAGCAAUAUUACGGUGU | -4.34 ± 0.22 | -2.36 ± 0.19
ACGUAGCAAUAUUACGUCAC |  | -1.67 ± 0.4
GGUUAGCAAUAUUACGGUAG | -2.79 ± 0.15 | -2.28 ± 0.2
GGUAAGCAAUAUUACGUGCC | -3.17 ± 0.39 | -3.07 ± 0.38
CGCGAGCAAUAUUACGAAGG | -2.81 ± 0.24 | -2.64 ± 0.27
GGUGAGCAAUAUUACGUCGG | -2.16 ± 0.28 | -2.5 ± 0.3
GAGUAGCAAUAUUACGUGUC | -1.73 ± 0.16 | -1.53 ± 0.26
AGCGAGCAAUAUUACGCGUU | -3.19 ± 0.27 | -2.79 ± 0.32
CGGCAGCAAUAUUACGGCUA | -0.121 ± 0.07 | 0.407 ± 0.096
UAUAAGCAAUAUUACGCCUU | -1.31 ± 0.1 | -0.179 ± 0.12
UGAUAGCAAUAUUACGUAGU | -4.18 ± 0.31 | -2.38 ± 0.28
AACUAGCAAUAUUACGCCAA | -2.83 ± 0.21 | -1.63 ± 0.16
CAUUAGCAAUAUUACGCCGU | -2.04 ± 0.15 | -1.84 ± 0.21
CGCGAGCAAUAUUACGAAUU | -3.16 ± 0.27 | -2.03 ± 0.21
UCUAAGCAAUAUUACGCGCG | -1.87 ± 0.14 | -1.74 ± 0.18
AUCGAGCAAUAUUACGGCCC | -3.15 ± 0.35 | 1.32 ± 0.32
GAGAAGCAAUAUUACGCGAG | -1.75 ± 0.086 | -0.918 ± 0.078
CACCAGCAAUAUUACGGGAG | -2.61 ± 0.067 | -1.26 ± 0.076
GUCUAGCAAUAUUACGUUAC | -0.99 ± 0.099 | -0.771 ± 0.096
CUCAAGCAAUAUUACGCUUC | -2.35 ± 0.26 | -2.7 ± 0.26
CAGUAGCAAUAUUACGCAUG | -2.31 ± 0.2 | -2.46 ± 0.29
CCGAAGCAAUAUUACGAAGG | -4.66 ± 0.46 | -2.15 ± 0.27

Sequence | self-splicing fitness (ln) (30 °C) | self-splicing fitness (ln) (37 °C)
GCACAGCAAUAUUACGCAGU | -1.65 ± 0.12 | -1.32 ± 0.13
UCGUAGCAAUAUUACGCGUC |  | -2.59 ± 0.33
AGGCAGCAAUAUUACGACCC | -0.357 ± 0.31 | -0.702 ± 0.5
ACGCAGCAAUAUUACGAAUA |  | -2.19 ± 0.23
CGCUAGCAAUAUUACGGAAA | -2.34 ± 0.41 | -1.49 ± 0.33
AAAAAGCAAUAUUACGGAAG | -2.88 ± 0.16 | -1.38 ± 0.14
GCCCAGCAAUAUUACGCGGA | -0.775 ± 0.098 | -0.201 ± 0.12
CUAAAGCAAUAUUACGGUUU | -3.29 ± 0.2 | -2.81 ± 0.28
UAUUAGCAAUAUUACGCGAC | -3.03 ± 0.25 | -1.41 ± 0.24
UAAGAGCAAUAUUACGCCUG | -2.17 ± 0.15 | -0.85 ± 0.2
AGGAAGCAAUAUUACGAUAA | -1.9 ± 0.21 | -1.33 ± 0.29
AGUUAGCAAUAUUACGGGCA | -0.103 ± 0.13 | -0.162 ± 0.15
CGACAGCAAUAUUACGCCGG | -0.394 ± 0.059 | -0.272 ± 0.067
UCAAAGCAAUAUUACGUCCC | -0.356 ± 0.2 | -1.14 ± 0.47
ACCGAGCAAUAUUACGGCCA | -0.778 ± 0.13 | -0.469 ± 0.14
CGGCAGCAAUAUUACGUGAG | -0.694 ± 0.041 | -0.055 ± 0.069
AGGAAGCAAUAUUACGGUGA | -2.15 ± 0.09 | -1.23 ± 0.088
GAAGAGCAAUAUUACGGUAC | -3.39 ± 0.31 | -1.69 ± 0.32
AAAAAGCAAUAUUACGGCUA | -0.166 ± 0.089 | 0.116 ± 0.11
AGAGAGCAAUAUUACGGCAU | -2.39 ± 0.18 | -1.36 ± 0.18
CAGCAGCAAUAUUACGAAUU | -4.16 ± 0.27 | -2.23 ± 0.23
CACAAGCAAUAUUACGGGAA | -3.21 ± 0.16 | -2.79 ± 0.17
GAGAAGCAAUAUUACGAAGA | -1.43 ± 0.28 | -1.67 ± 0.26
UCGAAGCAAUAUUACGAGAU | -4.08 ± 0.42 | -2.66 ± 0.21
CUUUAGCAAUAUUACGGAUG | -0.333 ± 0.067 | 0.313 ± 0.098

Sequence | self-splicing fitness (ln) (30 °C) | self-splicing fitness (ln) (37 °C)
GUUCAGCAAUAUUACGGAAC | -3.19 ± 0.2 | -2.09 ± 0.38
GCCUAGCAAUAUUACGACUC | -0.376 ± 0.14 | 0.0998 ± 0.17
CACAAGCAAUAUUACGCAUC | -3.19 ± 0.18 | -2.29 ± 0.18
CUCGAGCAAUAUUACGUAAA | -3.8 ± 0.34 | 
CGUUAGCAAUAUUACGCCCG | -0.798 ± 0.29 | 
AGUUAGCAAUAUUACGGCGG | -0.53 ± 0.085 | -0.514 ± 0.13
UGGUAGCAAUAUUACGUAGC | -1.3 ± 0.2 | -0.833 ± 0.27
GGCAAGCAAUAUUACGUACU | -0.208 ± 0.072 | 0.344 ± 0.088
GAUCAGCAAUAUUACGGUAC | -0.39 ± 0.11 | -0.884 ± 0.12
CUUUAGCAAUAUUACGAAAU | -2.94 ± 0.36 | -1.99 ± 0.41
UAAUAGCAAUAUUACGCCCA | -1.36 ± 0.19 | 0.129 ± 0.26
AGGAAGCAAUAUUACGCGAG | -1.55 ± 0.13 | -1.31 ± 0.15
UGAGAGCAAUAUUACGUUGG |  | -3 ± 0.27
GCCUAGCAAUAUUACGAUGA | -2.48 ± 0.16 | -1.4 ± 0.14
GGAAAGCAAUAUUACGGUAU | -1.82 ± 0.11 | -1.31 ± 0.13
AUAGAGCAAUAUUACGGUGG | -1.24 ± 0.26 | 
CACAAGCAAUAUUACGCUAA | -2.58 ± 0.18 | -1.82 ± 0.16
AGUCAGCAAUAUUACGAAAG | -3.43 ± 0.23 | -1.45 ± 0.2
AUGGAGCAAUAUUACGGUCU | -1.54 ± 0.14 | -2.04 ± 0.21
GGAAAGCAAUAUUACGCCAU | -1.76 ± 0.18 | -0.946 ± 0.31
UCUCAGCAAUAUUACGCGCG | -2.42 ± 0.21 | -1.71 ± 0.24
UGACAGCAAUAUUACGUAGG | -1.78 ± 0.079 | -1.31 ± 0.11
CAAGAGCAAUAUUACGGGGA | -3.21 ± 0.32 | -2.67 ± 0.28
